We go through 2 molecules from patent US20210206838A1.

What all share (assay): cell-based or functional assay
For experiment [1], the target named is HIV pseudovirus SC05.8C11.2344 (envelope glycoprotein) (HIV).
In experiment [2] the target is HIV pseudovirus Ce1176_A3 (envelope glycoprotein) (HIV).
Experiment [3] concerns the target HIV pseudovirus CNE52 (envelope glycoprotein) (HIV).
The target in experiment [4] is HIV pseudovirus 0260.v5.c36 (envelope glycoprotein) (HIV).
Experiment [5] concerns the target HIV pseudovirus RHPA4259.7 (envelope glycoprotein) (HIV).
Experiment [6] deals with HIV pseudovirus Du172.17 (envelope glycoprotein) (HIV).

B1: MS-40 (antibody, V domains shown)
VH: QMQLQESGPGLVKPSETLSLTCSVSGASISDSYWSWIRRSPGKGLEWIGYVHKSGDTNYSPSLKSRVNLSLDTSKNQVSLSLVAATAADSGVYYCARTLHGRRIYGIVAFNEWFTYFYMDVWGNGTQVTVSS
VL: SDISVAPGQTARISCGEKSLGSRAVQWYQQRAGQAPSLIIYNNQDRPSGIPERFSGSPDSPFGTTATLTITSVEAGDEADYYCHIWDSRVPTKWVFGGGTTLTVLG
As to B1, the neutralization IC50 in experiment [1] was determined as 0.014 µg/mL; in experiment [2], 0.009 µg/mL; in experiment [3], 2.22 µg/mL; in experiment [4], 0.043 µg/mL; in experiment [5], 0.006 µg/mL; in experiment [6], 0.046 µg/mL. Moreover, the neutralization IC80 in experiment [1] was 0.05 µg/mL; in experiment [2], 0.033 µg/mL; in experiment [3], 22.2 µg/mL; in experiment [4], 0.149 µg/mL; in experiment [5], 0.025 µg/mL; in experiment [6], 0.36 µg/mL.

B2: MS-48 (antibody, V domains shown)
VH: QMQLQESGPGLVKPSETLSLTCSVSGASISDSYWSWIRRSPGKGLEWIGYVHKSGDTNYSPSLKSRVNLSLDTSKNQVSLSLVAATAADSGKYYCARTLHGRRIYGIVAFNEWFTYFYMDVWGNGTQVTVSS
VL: SDISVAPGETARISCGEKSLGSRAVQWYQQRAGQAPSLIIYNNQDRPSGIPERFSGSPDSPFGTTATLTITSVEAGDEADYYCHIWDSRVPTKWVFGGGTTLTVLG
For B2, the neutralization IC50 in experiment [1] is 0.016 µg/mL; in experiment [2], 0.009 µg/mL; in experiment [3] it was 2.81 µg/mL; in experiment [4], 0.021 µg/mL; in experiment [5], 0.013 µg/mL; in experiment [6], 0.02 µg/mL. The neutralization IC80 in experiment [1] worked out at 0.063 µg/mL; in experiment [2], 0.036 µg/mL; in experiment [3], 21.9 µg/mL; in experiment [4], 0.108 µg/mL; in experiment [5], 0.034 µg/mL; in experiment [6], 0.165 µg/mL.
